Measured values reported in PMC5615192 (mBio, 2017).

How the values were obtained:
[1] = target: T1, HPV58 L1 pentamer (human papillomavirus type 58, UniProt P26535); assay: crystal structure; details: both partners purified
T1 construct: also called HPV58p; HPV58 pentamer

[2] = target: the molecule itself; assay: crystal structure

B1: A12A3 Fab (Fab, V domains shown)
VH: EVQLQQSGAELVRPGALVKLSCKASGFNIKDYYMHWVKQRPEQGLEWIGWIDPENGKTIYDPRFRGKASITADTSSNTAYLQLSSLTSEDAAVYYCATSNYRYDRSFDYWGQGTTLTVSA
VL: DIQMTQSPSSLFASLGGKVTITCKASQDINKYIAWFQHKPGKGPRLLIHYTFTLQPGIPSRFSGSGSGRDYSFSISNLEPEDIATYYCLQYHNLYTFGGGTKLEIK
notes: also called Fab fragment of A12A3; source: papain digestion of MAb A12A3, purified with DEAE-5PW exchange
For B1, which “stoichiometry N” value [1] is on record?
The value was 1 Fab per pentamer.

B2: HPV58 L1 pentamer (natural protein)
chain: EATVYLPPVPVSKVVSTDEYVSRTSIYYYAGSSRLLAVGNPYFSIKSPNNNKKVLVPKVSGLQYRVFRVRLPDPNKFGFPDTSFYNPDTQRLVWACVGLEIGRGQPLGVGVSGHPYLNKFDDTETSNRYPAQPGSDNRECLSMDYKQTQLCLIGCKPPTGEHWGKGVACNNNAAATDCPPLELFNSIIEDGDMVDTGFGCMDFGTLQANKSDVPIDICNSTCKYPDYLKMASEPYGDSLFFFLRREQMFVRHFFNRAGKLGEAVPDDLYIKGSGNTAVIQSSAFFPTPSGSIVTSESQLFNKPYWLQRAQGHNNGICWGNQLFVTVVDTTRSTNMTLCTEVTKEGTYKNDNFKEYVRHVEEYDLQFVFQLCKITLTAEIMTYIHTMDSNILEDWQFGLTPPPSASLQDTYRFVTSQAITCQKTAPPKEKEDPLNKYTFWEVNLKEKFSADLDQFPLGRKFLLQSGLKAKPRLKRSAPTTRAPSTKRKKVKK
notes: also called HPV58p; HPV58 pentamer
Which “stoichiometry N” value [2] does the source give for B2 here?
The value was 5.
